We go through one substance from patent US6130078.

For this data set, the system named is NspHI restriction endonuclease (NspHIR) (Nostoc sp. (ATCC 29106)). Briefly: cleavage_in_vitro. Particulars: cell extract dilutions 10^-1 to 10^-5 on lambda DNA.

Consider bacteriophage lambda DNA, for which the activity (units per g wet cells) worked out at 186000.
